Test results published in publication PMC9345960, “ERK1/2 inhibits Cullin 3/SPOP-mediated PrLZ ubiquitination and degradation to modulate prostate cancer progression” (Cell Death and Differentiation, 2022).

Molecular target: T1, HA-SPOP, wild type (UniProt O43791 1-374)
T1 construct: SPOP (Speckle-type POZ protein); also called HA-SPOP WT; pcDNA3-HA-SPOP; source: 293T, transfected, in lysate; also purified from transfected 293T cells using HA-tag beads
Experiment: pull-down; GST pull-down: purified GST-PrLZ and HA-SPOP or His-SPOP incubated 3 h at 4 °C, washed with RIPA buffer, western blot (Fig. 2c: antibody against His)
Details: both partners purified

T1 sequence (O43791 whole entry): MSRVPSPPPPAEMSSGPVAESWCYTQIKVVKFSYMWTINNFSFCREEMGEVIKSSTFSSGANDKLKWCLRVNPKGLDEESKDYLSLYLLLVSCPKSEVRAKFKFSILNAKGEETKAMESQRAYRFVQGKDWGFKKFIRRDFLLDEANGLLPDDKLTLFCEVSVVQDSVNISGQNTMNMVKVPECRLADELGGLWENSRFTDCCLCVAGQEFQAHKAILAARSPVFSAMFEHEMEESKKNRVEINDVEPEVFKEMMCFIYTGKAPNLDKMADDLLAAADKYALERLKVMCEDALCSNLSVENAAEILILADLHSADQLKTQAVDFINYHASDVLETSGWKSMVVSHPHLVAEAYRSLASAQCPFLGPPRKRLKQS

binding result: binds
B1: GST-PrLZ, wild type (bacterial) (natural protein, UniProt P55327 1-224, looked up)
chain: MDCREMDLYEDYQSPFDFDAGVNKSYLYLSPSGNSSPPGSPTLQKFGLLRTDPVPEEGEDVAATISATETLSEEEQEELRRELAKVEEEIQTLSQVLAAKEKHLAEIKRKLGINSLQELKQNIAKGWQDVTATSAYKKTSETLSQAGQKASAAFSSVGSVITKKLEDVKNSPTFKSFEEKVENLKSKVGGTKPAGGDFGEVLNSAANASATTTEPLPEKTQESL
notes: Prostate Leucine Zipper (PrLZ); also called GST-PrLZ WT; pGEX-4T-1-GST-PrLZ; source: E. coli BL21, purified (Glutathione Sepharose 4B)
